{
  "source": "paper PMC8405996",
  "about": "“A structurally preserved allosteric site in the MIF superfamily affects enzymatic activity and CD74 activation in D-dopachrome tautomerase” (The Journal of Biological Chemistry, 2021)",
  "proteins": {"B1": {"name": "D-dopachrome tautomerase (MIF-2), wild type (enzyme, human, UniProt P30046 1-118, looked up)", "chain": "MPFLELDTNLPANRVPAGLEKRLCAAAASILGKPADRVNVTVRPGLAMALSGSTEPCAQLSISSIGVVGTAEDNRSHSAHFFEFLTKELALGQDRILIRFFPLESWQIGKIGTVMTFL", "notes": "human D-dopachrome tautomerase (MIF-2), monomer of 117 amino acids with the catalytic Pro1 at the N terminus (initiating Met removed); Homotrimer; no tag is named; also called wt-MIF-2; DDT; source: E. coli BL21-Gold (DE3), purified (Q-Sepharose, Superdex 75)"}, "B2": {"name": "MIF-2 P1G variant (enzyme, human, UniProt P30046 1-118, looked up)", "chain": "B1 chain with P2G", "notes": "human D-dopachrome tautomerase (MIF-2) with P1G; the initiating Met was found kept in this variant (not cleaved in E. coli), so the chain begins Met-Gly1; also called P1G MIF-2; source: E. coli BL21-Gold (DE3), purified (Q-Sepharose, Superdex 75)"}},
  "target": "the molecule itself",
  "assay": "crystal structure; hanging-drop vapor diffusion at 20 °C; diffraction data at 100 K; molecular replacement; trimer of MIF-2 in the crystal",
  "note": "Changes are numbered by the printed parent chain. Names may count otherwise.",
  "data": [
    {"protein": "B1", "values": [
      {"measurement": "stoichiometry N", "result": 3}
    ]},
    {"protein": "B2", "values": [
      {"measurement": "binding result", "result": "binds"}
    ]}
  ]
}
